Assay results from the supplement of paper PMC10567573.

B1: CCDC89 (parent)
chain: LNAELEEKMMQEAEKLKAQGEYSR

Variants of: B1
Assay: protein stability index of a GFP-peptide fusion (GPS, HEK-293T) (PSI 1-6); higher = more stable
Conditions: c terminus: a fixed tail appended
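Further: lentivirally expressed fusions sorted by FACS into six bins by GFP to DsRed ratio, PSI derived from sequencing read proportions per bin multiplied by bin number.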

Variant	protein stability index
LNAELEEKMMQEAEKEKAQGEYSR [L16E]	5.79
LNAELEEKMMQEAEKCKAQGEYSR [L16C]	5.36
LNAELEEKMMQEAEKVKAQGEYSR [L16V]	4.97
LNAELEEKMMQEAEKTKAQGEYSR [L16T]	5.14
LNAELEEKMMQEAEKAKAQGEYSR [L16A]	5.1
LNAELEEKMMQEAEKPKAQGEYSR [L16P]	5.68
LNAELEEKMMQEAEKYKAQGEYSR [L16Y]	4.37
LNAELEEKMMQEAEKDKAQGEYSR [L16D]	5.77
LNAELEEKMMQEAEKSKAQGEYSR [L16S]	5.76
LNAELEEKMMQEAEKQKAQGEYSR [L16Q]	4.65
LNAELEEKMMQEAEKWKAQGEYSR [L16W]	4.6
LNAELEEKMMQEAEKNKAQGEYSR [L16N]	5.17
LNAELEEKMMQEAEKIKAQGEYSR [L16I]	5.82
LNAELEEKMMQEAEKGKAQGEYSR [L16G]	5.09
LNAELEEKMMQEAEKKKAQGEYSR [L16K]	4.85
LNAELEEKMMQEAEKLKTQGEYSR [A18T]	5.07
LNAELEEKMMQEAEKLKNQGEYSR [A18N]	5.09
LNAELEEKMMQEAEKLKDQGEYSR [A18D]	4.95
LNAELEEKMMQEAEKLKWQGEYSR [A18W]	4.15
LNAELEEKMMQEAEKLKGQGEYSR [A18G]	4.43
LNAELEEKMMQEAEKLKRQGEYSR [A18R]	4.31
LNAELEEKMMQEAEKLKLQGEYSR [A18L]	3.87
LNAELEEKMMQEAEKLKQQGEYSR [A18Q]	5.3
LNAELEEKMMQEAEKLKFQGEYSR [A18F]	4.28

Variant	protein stability index
LNAELEEKMMQEAEKLKPQGEYSR [A18P]	4.7
LNAELEEKMMQEAEKLKIQGEYSR [A18I]	4.32
LNAELEEKMMQEAEKLKMQGEYSR [A18M]	4.71
LNAELEEKMMQEAEKLKHQGEYSR [A18H]	4.15
LNAELEEKMMQEAEKLKCQGEYSR [A18C]	4.79
LNAELEEKMMQVAEKLKAQGEYSR [E12V]	4.12
LNAELEEKMMQIAEKLKAQGEYSR [E12I]	3.28
LNAELEEKMMQLAEKLKAQGEYSR [E12L]	2.92
LNAELEEKMMQYAEKLKAQGEYSR [E12Y]	3.47
LNAELEEKMMQWAEKLKAQGEYSR [E12W]	4.42
LNAELEEKMMQTAEKLKAQGEYSR [E12T]	4.4
LNAELEEKMMQRAEKLKAQGEYSR [E12R]	4.26
LNAELEEKMMQPAEKLKAQGEYSR [E12P]	5.4
LNAELEEKMMQFAEKLKAQGEYSR [E12F]	3.56
LNAELEEKMMQCAEKLKAQGEYSR [E12C]	4.38
LNAELEEKMMQKAEKLKAQGEYSR [E12K]	4.67
LNAELEEKMMQAAEKLKAQGEYSR [E12A]	4.42
LNAELEEKMMQNAEKLKAQGEYSR [E12N]	4.75
LNAELEEKMMQEAIKLKAQGEYSR [E14I]	4.27
LNAELEEKMMQEAHKLKAQGEYSR [E14H]	5.41
LNAELEEKMMQEAFKLKAQGEYSR [E14F]	4.05
LNAELEEKMMQEANKLKAQGEYSR [E14N]	4.66
LNAELEEKMMQEAGKLKAQGEYSR [E14G]	3.59
LNAELEEKMMQEALKLKAQGEYSR [E14L]	4.5

Variant	protein stability index
LNAELEEKMMQEAQKLKAQGEYSR [E14Q]	5.15
LNAELEEKMMQEADKLKAQGEYSR [E14D]	5.19
LNAELEEKMMQEACKLKAQGEYSR [E14C]	4.33
LNAELEEKMMQEAAKLKAQGEYSR [E14A]	4
LNAELEEKMMQEAEKLKAIGEYSR [Q19I]	3.83
LNAELEEKMMQEAEKLKAKGEYSR [Q19K]	5.3
LNAELEEKMMQEAEKLKASGEYSR [Q19S]	5.19
LNAELEEKMMQEAEKLKAHGEYSR [Q19H]	4.74
LNAELEEKMMQEAEKLKAYGEYSR [Q19Y]	2.53
LNAELEEKMMQEAEKLKAEGEYSR [Q19E]	5.84
LNAELEEKMMQEAEKLKACGEYSR [Q19C]	4.66
LNAELEEKMMQEAEKLKADGEYSR [Q19D]	5.85
LNAELEEKMMQEAEKLKAGGEYSR [Q19G]	4.95
LNAELEEKMMQEAEKLKAAGEYSR [Q19A]	5.24
LNAELEEKMMQEAEKLKALGEYSR [Q19L]	2.99
LNAELEEKMMQEAEKLKATGEYSR [Q19T]	5.18
LNAELEEKMMQEAEKLKAVGEYSR [Q19V]	5.57
LNAELEEKMMQEAEKLKAMGEYSR [Q19M]	4.13
LNAELEEKMMQEAEKLKAFGEYSR [Q19F]	3.64
LNAELEEKMMQEAEKLKANGEYSR [Q19N]	4.82
LNAELEEKMMQEAEKLKAWGEYSR [Q19W]	4.62
LNAELEEKMMQEAEKLKAPGEYSR [Q19P]	5.12
LNAELEEKMMNEAEKLKAQGEYSR [Q11N]	5.04
LNAELEEKMMWEAEKLKAQGEYSR [Q11W]	4.22

Variant	protein stability index
LNAELEEKMMTEAEKLKAQGEYSR [Q11T]	5.67
LNAELEEKMMPEAEKLKAQGEYSR [Q11P]	4.75
LNAELEEKMMEEAEKLKAQGEYSR [Q11E]	5.55
LNAELEEKMMHEAEKLKAQGEYSR [Q11H]	4.84
LNAELEEKMMREAEKLKAQGEYSR [Q11R]	4.76
LNAELEEKMMDEAEKLKAQGEYSR [Q11D]	5.7
LNAELEEKMMMEAEKLKAQGEYSR [Q11M]	4.18
LNAELEEKMMLEAEKLKAQGEYSR [Q11L]	3.99
LNAELEEKMMGEAEKLKAQGEYSR [Q11G]	5.18
LNAELEEKMMFEAEKLKAQGEYSR [Q11F]	4.14
LNAELEEKMMIEAEKLKAQGEYSR [Q11I]	4.96
LNAELEEKMMKEAEKLKAQGEYSR [Q11K]	4.94
LNAELEEKMMVEAEKLKAQGEYSR [Q11V]	5.09
LNAELEEKMMYEAEKLKAQGEYSR [Q11Y]	4.86
LNAELEEKMMSEAEKLKAQGEYSR [Q11S]	5.49
LNAELEEKMMCEAEKLKAQGEYSR [Q11C]	5.38
LNAELEEKMMQEAEKLKAQSEYSR [G20S]	4.91
LNAELEEKMMQEAEKLKAQCEYSR [G20C]	2.96
LNAELEEKMMQEAEKLKAQKEYSR [G20K]	5.22
LNAELEEKMMQEAEKLKAQPEYSR [G20P]	5.43
LNAELEEKMMQEAEKLKAQEEYSR [G20E]	4.82
LNAELEEKMMQEAEKLKAQREYSR [G20R]	4.85
LNAELEEKMMQEAEKLKAQHEYSR [G20H]	4.35
LNAELEEKMMQEAEKLKAQIEYSR [G20I]	3.68

Variant	protein stability index
LNAELEEKMMQEAEKLKAQVEYSR [G20V]	5.31
LNAELEEKMMQEAEKLKAQLEYSR [G20L]	2.99
LNAELEEKMMQEAEKLKAQNEYSR [G20N]	4.99
LNAELEEKMMQEAEKLKAQYEYSR [G20Y]	4.44
LNAELEEKMMQEAEKLKAQAEYSR [G20A]	4.98
LNAELEEKRMQEAEKLKAQGEYSR [M9R]	5.12
LNAELEEKLMQEAEKLKAQGEYSR [M9L]	3.96
LNAELEEKNMQEAEKLKAQGEYSR [M9N]	5.1
LNAELEEKWMQEAEKLKAQGEYSR [M9W]	5.04
LNAELEEKFMQEAEKLKAQGEYSR [M9F]	4.97
LNAELEEKPMQEAEKLKAQGEYSR [M9P]	5.53
LNAELEEKGMQEAEKLKAQGEYSR [M9G]	5.05
LNAELEEKIMQEAEKLKAQGEYSR [M9I]	5.12
LNAELEEKHMQEAEKLKAQGEYSR [M9H]	5.95
LNAELEEKKMQEAEKLKAQGEYSR [M9K]	3.98
LNAELEEKQMQEAEKLKAQGEYSR [M9Q]	4.79
LNAELEEKTMQEAEKLKAQGEYSR [M9T]	5.23
LNAELEEKMMQEAEWLKAQGEYSR [K15W]	4.41
LNAELEEKMMQEAEPLKAQGEYSR [K15P]	5.38
LNAELEEKMMQEAERLKAQGEYSR [K15R]	4.84
LNAELEEKMMQEAEGLKAQGEYSR [K15G]	5.26
LNAELEEKMMQEAEYLKAQGEYSR [K15Y]	4.3
LNAELEEKMMQEAEVLKAQGEYSR [K15V]	4.78
LNAELEEKMMQEAEALKAQGEYSR [K15A]	5.41

Variant	protein stability index
LNAELEEKMMQEAESLKAQGEYSR [K15S]	4.38
LNAELEEKMMQEAEMLKAQGEYSR [K15M]	5.82
LNAELEEKMMQEAECLKAQGEYSR [K15C]	5.03
LNAELEEKMMQEAEHLKAQGEYSR [K15H]	5.2
LNAELEEKMMQEAELLKAQGEYSR [K15L]	4.99
LNAELEEKMMQEAEQLKAQGEYSR [K15Q]	5.41
LNAELEEKMMQEAENLKAQGEYSR [K15N]	4.71
LNAELEEKMMQEAEELKAQGEYSR [K15E]	5.06
LNAELEEKMMQEAEDLKAQGEYSR [K15D]	5.58
LNAELEEKMMQEAEKLYAQGEYSR [K17Y]	4.43
LNAELEEKMMQEAEKLFAQGEYSR [K17F]	4.3
LNAELEEKMMQEAEKLWAQGEYSR [K17W]	3.79
LNAELEEKMMQEAEKLIAQGEYSR [K17I]	4.72
LNAELEEKMMQEAEKLQAQGEYSR [K17Q]	5.22
LNAELEEKMMQEAEKLRAQGEYSR [K17R]	4.41
LNAELEEKMMQEAEKLDAQGEYSR [K17D]	5.47
LNAELEEKMMQEAEKLLAQGEYSR [K17L]	4.54
LNAELEEKMMQEAEKLPAQGEYSR [K17P]	5.65
LNAELEEKMMQEAEKLHAQGEYSR [K17H]	3.87
LNAELEEKMMQEAEKLVAQGEYSR [K17V]	4.4
LNAELEEKMMQEAEKLGAQGEYSR [K17G]	4.93
LNAELEEKMMQEAEKLCAQGEYSR [K17C]	4.02
LNAELEEKMVQEAEKLKAQGEYSR [M10V]	5.13
LNAELEEKMYQEAEKLKAQGEYSR [M10Y]	5.15

Variant	protein stability index
LNAELEEKMWQEAEKLKAQGEYSR [M10W]	4.7
LNAELEEKMHQEAEKLKAQGEYSR [M10H]	5.11
LNAELEEKMRQEAEKLKAQGEYSR [M10R]	5.25
LNAELEEKMNQEAEKLKAQGEYSR [M10N]	5.34
LNAELEEKMAQEAEKLKAQGEYSR [M10A]	5.55
LNAELEEKMSQEAEKLKAQGEYSR [M10S]	5.65
LNAELEEKMLQEAEKLKAQGEYSR [M10L]	5.46
LNAELEEKMDQEAEKLKAQGEYSR [M10D]	5.08
LNAELEEKMEQEAEKLKAQGEYSR [M10E]	5.39
LNAELEEKMKQEAEKLKAQGEYSR [M10K]	5.08
LNAELEEKMTQEAEKLKAQGEYSR [M10T]	5.42
LNAELEEKMMQEAEKLKAQGECSR [Y22C]	5.25
LNAELEEKMMQEAEKLKAQGYYSR [E21Y]	5.03
LNAELEEKMMQEAEKLKAQGRYSR [E21R]	4.98
LNAELEEKMMQEAEKLKAQGDYSR [E21D]	4.92
LNAELEEKMMQEAEKLKAQGVYSR [E21V]	4.58
LNAELEEKMMQEAEKLKAQGTYSR [E21T]	4.19
LNAELEEKMMQEAEKLKAQGKYSR [E21K]	5.46
LNAELEEKMMQEAEKLKAQGHYSR [E21H]	4.47
LNAELEEKMMQEAEKLKAQGLYSR [E21L]	4.16
LNAELEEKMMQEAEKLKAQGAYSR [E21A]	4.77
LNAELEEKMMQEAEKLKAQGSYSR [E21S]	4.39
LNAELEEKMMQEAEKLKAQGCYSR [E21C]	4.29
LNAELEEKMMQEAEKLKAQGGYSR [E21G]	4.17

Variant	protein stability index
LNAELEEKMMQEAEKLKAQGIYSR [E21I]	4.62
LNAELEEKMMQEAEKLKAQGMYSR [E21M]	4.76
LNAELEEKMMQEAEKLKAQGWYSR [E21W]	3.76
LNAELEEKMMQEAEKLKAQGNYSR [E21N]	4.79
LNAELEEKMMQEWEKLKAQGEYSR [A13W]	4.13
LNAELEEKMMQEQEKLKAQGEYSR [A13Q]	4.5
LNAELEEKMMQETEKLKAQGEYSR [A13T]	5.26
LNAELEEKMMQEMEKLKAQGEYSR [A13M]	5
LNAELEEKMMQEDEKLKAQGEYSR [A13D]	5.8
LNAELEEKMMQECEKLKAQGEYSR [A13C]	4.94
LNAELEEKMMQESEKLKAQGEYSR [A13S]	4.68
LNAELEEKMMQEHEKLKAQGEYSR [A13H]	4.85
LNAELEEKMMQEFEKLKAQGEYSR [A13F]	4.49
LNAELEEKMMQEYEKLKAQGEYSR [A13Y]	5.28
LNAELEEKMMQEREKLKAQGEYSR [A13R]	4.99
LNAELEEKMMQEKEKLKAQGEYSR [A13K]	5.08
LNAELEEKMMQEIEKLKAQGEYSR [A13I]	4.38
LNAELEEKMMQEVEKLKAQGEYSR [A13V]	4.64
LNAELEEKMMQEEEKLKAQGEYSR [A13E]	5.71
LNAELEEKMMQEGEKLKAQGEYSR [A13G]	4.84
